Experiment [1] deals with T1, TL1A (antigen of Examples 1 and 2, species not stated) (UniProt O95150 57-251, limits assumed).
T1 construct: also called recombinant purified antigen; TNFSF15
T1 sequence (looked up): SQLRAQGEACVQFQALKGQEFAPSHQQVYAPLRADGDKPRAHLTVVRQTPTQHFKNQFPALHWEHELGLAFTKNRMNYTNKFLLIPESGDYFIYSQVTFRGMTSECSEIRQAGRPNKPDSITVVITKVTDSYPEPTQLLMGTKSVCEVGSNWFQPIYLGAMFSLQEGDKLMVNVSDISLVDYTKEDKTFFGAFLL
The experiment is described as follows: SPR, Biacore 8K, Protein A chip, antibody captured, antigen as analyte (second line). (Surface plasmon resonance follows binding to a sensor surface in real time, without labels.)

Experiment [2] has as its target T2, biotinylated recombinant human TL1A (human, UniProt O95150 57-251, limits assumed, biotinylated (sites not given)).
T2 sequence: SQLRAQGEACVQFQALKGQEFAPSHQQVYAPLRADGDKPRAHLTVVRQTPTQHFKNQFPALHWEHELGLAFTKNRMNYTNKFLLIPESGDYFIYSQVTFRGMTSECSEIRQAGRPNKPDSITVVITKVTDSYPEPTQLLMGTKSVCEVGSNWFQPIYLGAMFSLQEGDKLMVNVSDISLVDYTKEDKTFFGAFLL
The experiment is described as follows: competition ELISA, blocks biotinylated human TL1A (3.5 nM) binding to coated DcR3/Fc. Background: In an ELISA, binding on a coated surface is turned into a signal by an enzyme label.

For experiment [3], the target named is T3, human FcRn (human, UniProt P55899 24-297; P61769 21-119).
T3 construct: also called neonatal Fc receptor
The experiment is described as follows: SPR, Biacore 8K, CM5 chip, antibody immobilised, human FcRn as analyte, pH 6.0.

Experiment [4] deals with T2, biotinylated recombinant human TL1A. Put plainly: competition ELISA, blocks biotinylated human TL1A (3.5 nM) binding to coated DR3/Fc.
The target of experiment [5] is T3, human FcRn. The experiment is described as follows: SPR, Biacore 8K, CM5 chip, antibody immobilised, human FcRn as analyte, pH 6.0, steady-state affinity fit.
Experiment [6] addresses T1, TL1A (antigen of Examples 1 and 2, …). The experiment is described as follows: SPR, Biacore 8K, Protein A chip, antibody captured, antigen as analyte.
The target is the same in experiment [7]. The experiment is described as follows: BLI (Gator Bio), tagged antibody on Strep-Tactin XT probes, recombinant purified antigen as analyte, 25 C.
For experiment [8] the target is unchanged. The experiment is described as follows: cell-based or functional assay.
Experiment [9] has as its target T3, human FcRn. The experiment is described as follows: SPR, Biacore 8K, CM5 chip, FcRn, pH 6.0.

Several values for one entry are separate records, joined by “and”; a condition that tells them apart may be missing. Equal values may be shown once.

T3 sequence (P55899 24-297 limits assumed, chain 1 of 2): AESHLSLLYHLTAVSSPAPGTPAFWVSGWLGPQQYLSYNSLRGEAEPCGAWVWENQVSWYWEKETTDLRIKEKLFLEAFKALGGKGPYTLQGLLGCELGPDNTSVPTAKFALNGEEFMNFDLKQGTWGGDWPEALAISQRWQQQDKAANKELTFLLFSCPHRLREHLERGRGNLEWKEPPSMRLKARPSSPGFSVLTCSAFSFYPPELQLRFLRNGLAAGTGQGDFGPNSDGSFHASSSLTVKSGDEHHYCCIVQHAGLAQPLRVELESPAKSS
T3 sequence (P61769 21-119 limits assumed, chain 2 of 2): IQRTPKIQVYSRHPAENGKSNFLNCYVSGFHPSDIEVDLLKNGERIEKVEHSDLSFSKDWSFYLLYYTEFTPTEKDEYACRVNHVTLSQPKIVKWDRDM

B1: AB_TL1A_02_004 (antibody, human IgG1, kappa)
heavy: QVQLVQSGAEVKKPGASVKVSCKASGYDFTYYGISWVRQAPGQGLEWMGWISPYNGNTHYAQKLQGRVTMTTDTSTRTAYMELRSLRSDDTAVYYCARENYYGSGAYRGGMDVWGQGTTVTVSSASTKGPSVFPLAPSSKSTSGGTAALGCLVKDYFPEPVTVSWNSGALTSGVHTFPAVLQSSGLYSLSSVVTVPSSSLGTQTYICNVNHKPSNTKVDKKVEPKSCDKTHTCPPCPAPEAAGAPSVFLFPPKPKDTLMISRTPEVTCVVVDVSHEDPEVKFNWYVDGVEVHNAKTKPREEQYNSTYRVVSVLTVLHQDWLNGKEYKCKVSNKALPAPIEKTISKAKGQPREPQVYTLPPSREEMTKNQVSLTCLVKGFYPSDIAVEWESNGQPENNYKTTPPVLDSDGSFFLYSKLTVDKSRWQQGNVFSCSVMHEALHNHYTQKSLSLSPG
light: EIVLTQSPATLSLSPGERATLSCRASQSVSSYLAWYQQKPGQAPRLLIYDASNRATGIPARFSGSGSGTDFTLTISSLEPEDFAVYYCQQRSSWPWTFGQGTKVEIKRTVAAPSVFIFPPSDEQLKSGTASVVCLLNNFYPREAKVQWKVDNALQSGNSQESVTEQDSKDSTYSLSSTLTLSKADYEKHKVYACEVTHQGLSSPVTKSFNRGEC
As for B1, the Kd was less than 0.0469 nM in [1]; 2430 nM and 2240 nM in the experiment with human FcRn [3]; 2430 nM and 2240 nM with human FcRn [5]; less than 0.0256 nM in experiment [6]. For the same molecule, the IC50 in experiment [2] is 1.2 to 1.51 nM; in experiment [4] it was 0.92 to 1.01 nM.

B2: AB_TL1A_02_004 with a C-terminal fused assay tag (prokaryotic in vitro translation, BLI of Example 1) (antibody, human IgG1, kappa)
heavy: QVQLVQSGAEVKKPGASVKVSCKASGYDFTYYGISWVRQAPGQGLEWMGWISPYNGNTHYAQKLQGRVTMTTDTSTRTAYMELRSLRSDDTAVYYCARENYYGSGAYRGGMDVWGQGTTVTVSSASTKGPSVFPLAPSSKSTSGGTAALGCLVKDYFPEPVTVSWNSGALTSGVHTFPAVLQSSGLYSLSSVVTVPSSSLGTQTYICNVNHKPSNTKVDKKVEPKSCDKTHTCPPCPAPEAAGAPSVFLFPPKPKDTLMISRTPEVTCVVVDVSHEDPEVKFNWYVDGVEVHNAKTKPREEQYNSTYRVVSVLTVLHQDWLNGKEYKCKVSNKALPAPIEKTISKAKGQPREPQVYTLPPSREEMTKNQVSLTCLVKGFYPSDIAVEWESNGQPENNYKTTPPVLDSDGSFFLYSKLTVDKSRWQQGNVFSCSVMHEALHNHYTQKSLSLSPG
light: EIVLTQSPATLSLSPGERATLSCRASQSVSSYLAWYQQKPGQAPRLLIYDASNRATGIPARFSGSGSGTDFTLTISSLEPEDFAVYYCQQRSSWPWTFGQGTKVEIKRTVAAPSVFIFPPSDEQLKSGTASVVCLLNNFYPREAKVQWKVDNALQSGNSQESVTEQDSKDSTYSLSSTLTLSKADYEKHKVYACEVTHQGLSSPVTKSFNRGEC
With B2, in [7], the dissociation constant Kd was 5.17 nM and 5 nM; the kon was 380000 M⁻¹ s⁻¹.

B3: AB_TL1A_02_004_HL3 (antibody, human IgG1, kappa)
heavy: QVQLVQSGAEVKKPGASVKVSCKASGYDFTYYGISWVRQAPGQGLEWMGWISPYNGNTHYAQKLQGRVTMTTDTSTRTAYMELRSLRSDDTAVYYCARENYYGSGAYRGGMDVWGQGTTVTVSSASTKGPSVFPLAPSSKSTSGGTAALGCLVKDYFPEPVTVSWNSGALTSGVHTFPAVLQSSGLYSLSSVVTVPSSSLGTQTYICNVNHKPSNTKVDKKVEPKSCDKTHTCPPCPAPEAAGAPSVFLFPPKPKDTLMISRTPEVTCVVVDVSHEDPEVKFNWYVDGVEVHNAKTKPREEQYNSTYRVVSVLTVLHRDWLNGKEYKCKVSNKALPAPIEKTISKAKGQPREPQVYTLPPSREEMTKNQVSLTCLVKGFYPSDIAVEWESNGQPENNYKTTPPVLDSDGSFFLYSKLTVDKSRWQQGNVFSCSVLHEALHNHYTQKSLSLSPG
light: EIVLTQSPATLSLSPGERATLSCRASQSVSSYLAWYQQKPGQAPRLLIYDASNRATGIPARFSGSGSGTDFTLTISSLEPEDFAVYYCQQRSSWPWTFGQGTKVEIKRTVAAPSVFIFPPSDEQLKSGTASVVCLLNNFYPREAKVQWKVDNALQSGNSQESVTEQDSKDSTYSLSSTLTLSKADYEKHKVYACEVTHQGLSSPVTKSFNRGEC
notes: built from the name and the HLE mutation column
As for B3, in the experiment with human FcRn [5], the “Fold Increase (FI) relative to RVT-3101” value was 5.3 fold and the Kd turned out to be 461 nM.

B4: AB_TL1A_02_004_HL2 (antibody, human IgG1, kappa)
heavy: QVQLVQSGAEVKKPGASVKVSCKASGYDFTYYGISWVRQAPGQGLEWMGWISPYNGNTHYAQKLQGRVTMTTDTSTRTAYMELRSLRSDDTAVYYCARENYYGSGAYRGGMDVWGQGTTVTVSSASTKGPSVFPLAPSSKSTSGGTAALGCLVKDYFPEPVTVSWNSGALTSGVHTFPAVLQSSGLYSLSSVVTVPSSSLGTQTYICNVNHKPSNTKVDKKVEPKSCDKTHTCPPCPAPEAAGAPSVFLFPPKPKDTLMISRTPEVTCVVVDVSHEDPEVKFNWYVDGVEVHNAKTKPREEQYNSTYRVVSVLTVLHQDWLNGKEYKCKVSNKALPAPIEKTISKAKGQPREPQVYTLPPSREEMTKNQVSLTCLVKGFYPSDIAVEWESNGQPENNYKTTPPVLDSDGSFFLYSKLTVDKSRWQQGNVFSCSVLHEALHSHYTQKSLSLSPG
light: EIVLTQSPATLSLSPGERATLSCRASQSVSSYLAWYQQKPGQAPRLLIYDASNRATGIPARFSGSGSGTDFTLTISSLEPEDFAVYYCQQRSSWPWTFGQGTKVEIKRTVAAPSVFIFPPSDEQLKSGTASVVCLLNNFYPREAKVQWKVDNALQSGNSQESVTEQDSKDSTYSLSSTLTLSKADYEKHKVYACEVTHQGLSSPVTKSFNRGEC
notes: HLE mutations M428L, N434S
In the case of B4, the results for the IC50 in [2] and in experiment [4] were 1.3 nM and 0.58 nM, respectively. Moreover, the Kd with human FcRn [3] is 159 nM and 190 nM; in experiment [6] it was less than 0.0262 nM; in the experiment with human FcRn [9], 159 nM and 190 nM. Besides, the “IC50 (nM), inhibition of TL1A-induced apoptosis of TF-1 cells (Caspase-Glo 3/7)” value in experiment [8] was 0.87 nM. Moreover, the “max inhibition of TL1A-induced apoptosis of TF-1 cells” value in [8] worked out at 95%.

B5: AB_TL1A_02_004_HL4 (antibody, human IgG1, kappa)
heavy: QVQLVQSGAEVKKPGASVKVSCKASGYDFTYYGISWVRQAPGQGLEWMGWISPYNGNTHYAQKLQGRVTMTTDTSTRTAYMELRSLRSDDTAVYYCARENYYGSGAYRGGMDVWGQGTTVTVSSASTKGPSVFPLAPSSKSTSGGTAALGCLVKDYFPEPVTVSWNSGALTSGVHTFPAVLQSSGLYSLSSVVTVPSSSLGTQTYICNVNHKPSNTKVDKKVEPKSCDKTHTCPPCPAPEAAGAPSVFLFPPKPKDTLMISRTPEVTCVVVDVSHEDPEVKFNWYVDGVEVHNAKTKPREEQYNSTYRVVSVLTVLHQDWLNGKEYKCKVSNKALPAPIEKTISKAKGQPREPQVYTLPPSREEMTKNQVSLTCLVKGFYPSDIAVEWESNGQPENNYKTTPPVLDSDGSFFLYSKLTVDKSRWQQGNVFSCSVMHEALKFHYTQKSLSLSPG
light: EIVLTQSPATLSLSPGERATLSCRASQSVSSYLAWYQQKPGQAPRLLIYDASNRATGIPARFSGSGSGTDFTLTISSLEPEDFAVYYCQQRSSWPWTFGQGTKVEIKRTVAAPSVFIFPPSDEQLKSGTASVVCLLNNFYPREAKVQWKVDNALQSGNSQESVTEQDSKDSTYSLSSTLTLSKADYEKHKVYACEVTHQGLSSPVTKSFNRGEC
notes: as for B3
For B5, in the experiment with human FcRn [5], the “Fold Increase (FI) relative to RVT-3101” value was determined as 18.5 fold and the affinity, expressed as Kd, was 132 nM.

B6: RVT-3101 (antibody, human IgG1, kappa)
heavy: QVQLVQSGAEVKKPGASVKVSCKASGYDFTYYGISWVRQAPGQGLEWMGWISTYNGNTHYARMLQGRVTMTTDTSTRTAYMELRSLRSDDTAVYYCARENYYGSGAYRGGMDVWGQGTTVTVSSASTKGPSVFPLAPSSKSTSGGTAALGCLVKDYFPEPVTVSWNSGALTSGVHTFPAVLQSSGLYSLSSVVTVPSSSLGTQTYICNVNHKPSNTKVDKKVEPKSCDKTHTCPPCPAPEAAGAPSVFLFPPKPKDTLMISRTPEVTCVVVDVSHEDPEVKFNWYVDGVEVHNAKTKPREEQYNSTYRVVSVLTVLHQDWLNGKEYKCKVSNKALPAPIEKTISKAKGQPREPQVYTLPPSREEMTKNQVSLTCLVKGFYPSDIAVEWESNGQPENNYKTTPPVLDSDGSFFLYSKLTVDKSRWQQGNVFSCSVMHEALHNHYTQKSLSLSPG
light: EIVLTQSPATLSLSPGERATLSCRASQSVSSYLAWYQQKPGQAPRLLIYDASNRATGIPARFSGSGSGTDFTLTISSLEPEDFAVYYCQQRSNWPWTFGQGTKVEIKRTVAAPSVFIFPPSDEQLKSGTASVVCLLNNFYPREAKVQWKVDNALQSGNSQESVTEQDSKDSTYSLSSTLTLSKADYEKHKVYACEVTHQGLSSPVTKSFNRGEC
notes: Comparator anti-TL1A antibody, no HLE mutation; also called RVT-3101 (Roche); anti-TL1A comparator antibody
For the molecule B6, in the experiment with human FcRn [3], the “Fold Increase (FI) relative to Rituximab” value was 0.9 fold; the Kd was 2440 nM and 2450 nM and 2460 nM. In the experiment with human FcRn [5], the “Fold Increase (FI) relative to RVT-3101” value worked out at 1 fold; the Kd was 2440 nM and 2450 nM and 2460 nM.

B7: AB_TL1A_02_004_HL9 (antibody, human IgG1, kappa)
heavy: QVQLVQSGAEVKKPGASVKVSCKASGYDFTYYGISWVRQAPGQGLEWMGWISPYNGNTHYAQKLQGRVTMTTDTSTRTAYMELRSLRSDDTAVYYCARENYYGSGAYRGGMDVWGQGTTVTVSSASTKGPSVFPLAPSSKSTSGGTAALGCLVKDYFPEPVTVSWNSGALTSGVHTFPAVLQSSGLYSLSSVVTVPSSSLGTQTYICNVNHKPSNTKVDKKVEPKSCDKTHTCPPCPAPEAAGAPSVFLFPPKPKDTLMISRTPEVTCVVVDVSHEDPEVKFNWYVDGVEVHNAKTKPREEQYNSTYRVVSVLTVLHRDWLNGKEYKCKVSNKALPAPIEKTISKAKGQPREPQVYTLPPSREEMTKNQVSLTCLVKGFYPSDIAVEWESNGQPENNYKTTPPVLDSDGSFFLYSKLTVDKSRWQQGNVFSCSVLHEALKFHYTQKSLSLSPG
light: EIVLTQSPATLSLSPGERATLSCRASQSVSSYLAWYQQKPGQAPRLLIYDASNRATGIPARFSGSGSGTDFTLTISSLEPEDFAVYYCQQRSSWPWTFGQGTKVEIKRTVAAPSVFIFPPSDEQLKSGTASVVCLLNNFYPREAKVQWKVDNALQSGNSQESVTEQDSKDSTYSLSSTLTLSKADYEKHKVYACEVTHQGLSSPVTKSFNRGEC
notes: as for B3
For the molecule B7, the Kd with human FcRn [3] is 36 nM and 43.3 nM; with human FcRn [5] it was 36 nM and 43.3 nM.

Broadly, the Kd is the free concentration of one partner at which half of the binding sites on the other are occupied at equilibrium, for simple one-to-one binding. As usually defined, the IC50 is the concentration that gives 50% inhibition. One may read the kon as the second-order rate constant of association.

For the origin of these results see US20260242497A1 (VIAL HEALTH TECHNOLOGY, published 2026).
